According to the supplement of paper PMC9112550, “Optimization of the antimicrobial peptide Bac7 by deep mutational scanning” (BMC Biology, 2022):

system: Escherichia coli TOP10; assay: shrunken log2 fold change of peptide-encoding DNA abundance (4.5 h post-induction vs induction); higher = less antimicrobial activity (less host growth inhibition); conditions: time post-induction: 4.5 h; library: site-saturation at positions 5, 18, 19, 20
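Also: peptides expressed intracellularly from a pBAD plasmid library in pooled LB shake-flask culture, induced with 0.3% L-arabinose, DNA abundance read by NGS, three biological replicates, DESeq2 with apeglm shrinkage.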

Sequence	shrunken log2 fold change
RRIRVRPPRLPRPRPRPDTTPRP	-1.05
RRIRRRPPRLPRPRPRPAWCPRP	0.568
RRIRFRPPRLPRPRPRPIMYPRP	-0.33
RRIRWRPPRLPRPRPRPRATPRP	1.26
RRIRPRPPRLPRPRPRPVDRPRP	0.115
RRIRKRPPRLPRPRPRPFSAPRP	-0.12
RRIRKRPPRLPRPRPRPNQLPRP	-0.33
RRIRCRPPRLPRPRPRPDQWPRP	-0.197
RRIRWRPPRLPRPRPRPSIRPRP	-0.613
RRIRNRPPRLPRPRPRPTYHPRP	-0.526
RRIRIRPPRLPRPRPRPCRIPRP	-0.0204
RRIRVRPPRLPRPRPRPCQMPRP	-0.486
RRIRLRPPRLPRPRPRPVQAPRP	-0.0131
RRIRIRPPRLPRPRPRPQCIPRP	-0.37
RRIRERPPRLPRPRPRPGYEPRP	-0.00204
RRIRQRPPRLPRPRPRPYMGPRP	-0.00992
RRIRKRPPRLPRPRPRPTVPPRP	0.283
RRIRGRPPRLPRPRPRPDYPPRP	0.121
RRIRSRPPRLPRPRPRPEKMPRP	0.061
RRIRNRPPRLPRPRPRPWVSPRP	0.069
RRIRCRPPRLPRPRPRPMQTPRP	1.52
RRIRVRPPRLPRPRPRPAMQPRP	0.193
RRIRFRPPRLPRPRPRPHGVPRP	-0.0563
RRIRKRPPRLPRPRPRPALRPRP	0.455
RRIRRRPPRLPRPRPRPIWIPRP	-0.32

Sequence	shrunken log2 fold change
RRIRRRPPRLPRPRPRPIPVPRP	0.265
RRIRWRPPRLPRPRPRPECIPRP	0.872
RRIRIRPPRLPRPRPRPIWVPRP	-0.145
RRIRIRPPRLPRPRPRPPHKPRP	-0.0846
RRIRLRPPRLPRPRPRPVDMPRP	-0.375
RRIRCRPPRLPRPRPRPHFYPRP	-0.305
RRIRPRPPRLPRPRPRPMPMPRP	-0.301
RRIRCRPPRLPRPRPRPPARPRP	0.735
RRIRVRPPRLPRPRPRPRTRPRP	0.339
RRIRIRPPRLPRPRPRPGKCPRP	-0.215
RRIRSRPPRLPRPRPRPMLYPRP	0.0575
RRIRFRPPRLPRPRPRPIRVPRP	0.0245
RRIRNRPPRLPRPRPRPQVTPRP	-0.134
RRIRWRPPRLPRPRPRPSFPPRP	-0.0295
RRIRMRPPRLPRPRPRPGFDPRP	0.908
RRIRFRPPRLPRPRPRPSPTPRP	0.313
RRIRERPPRLPRPRPRPISYPRP	-0.0746
RRIRRRPPRLPRPRPRPYLAPRP	-0.185
RRIRGRPPRLPRPRPRPKWNPRP	0.581
RRIRDRPPRLPRPRPRPSFMPRP	0.147
RRIRVRPPRLPRPRPRPNSGPRP	-0.496
RRIRWRPPRLPRPRPRPSCFPRP	0.486
RRIRFRPPRLPRPRPRPLSKPRP	0.72
RRIRIRPPRLPRPRPRPLWQPRP	0.0858
RRIRHRPPRLPRPRPRPCMDPRP	-0.0981

Sequence	shrunken log2 fold change
RRIRKRPPRLPRPRPRPQYWPRP	0.152
RRIRCRPPRLPRPRPRPYNSPRP	-0.325
RRIRNRPPRLPRPRPRPSLFPRP	-0.453
RRIRRRPPRLPRPRPRPIVGPRP	0.0287
RRIRPRPPRLPRPRPRPSFDPRP	-0.248
RRIRYRPPRLPRPRPRPPLAPRP	0.13
RRIRGRPPRLPRPRPRPKRRPRP	1.3
RRIRRRPPRLPRPRPRPMGGPRP	0.083
RRIRERPPRLPRPRPRPMRDPRP	0.365
RRIRDRPPRLPRPRPRPGPFPRP	0.174
RRIRLRPPRLPRPRPRPHAFPRP	-0.208
RRIRIRPPRLPRPRPRPKDDPRP	-0.254
RRIRTRPPRLPRPRPRPGPRPRP	0.716
RRIRQRPPRLPRPRPRPTCHPRP	-0.552
RRIRARPPRLPRPRPRPAKSPRP	0.061
RRIRMRPPRLPRPRPRPLSHPRP	0.177
RRIRKRPPRLPRPRPRPHTKPRP	-0.0306
RRIRGRPPRLPRPRPRPFEVPRP	0.121
RRIRFRPPRLPRPRPRPCSWPRP	-0.349
RRIRFRPPRLPRPRPRPDFRPRP	0.00564
RRIRTRPPRLPRPRPRPDAKPRP	0.395
RRIRYRPPRLPRPRPRPQTDPRP	-0.274
RRIRKRPPRLPRPRPRPSISPRP	0.146
RRIRSRPPRLPRPRPRPAWMPRP	-0.263
RRIRSRPPRLPRPRPRPMEWPRP	0.199
